# Laboratory results as given in publication PMC5982450.
# Assays:
# [1] = target: C5a receptor (C5aR) (human (endogenous in neutrophils)) (UniProt P21730)
# [2] = target: formylated peptide receptors (FPR) (human (endogenous in neutrophils)) (UniProt P21462)
# [3] = target: formylated peptide receptors (FPR) (human (endogenous in neutrophils)) (UniProt P21462); remark: listed apart in the source
# Chain of UniProt P21730 (P21730 whole entry): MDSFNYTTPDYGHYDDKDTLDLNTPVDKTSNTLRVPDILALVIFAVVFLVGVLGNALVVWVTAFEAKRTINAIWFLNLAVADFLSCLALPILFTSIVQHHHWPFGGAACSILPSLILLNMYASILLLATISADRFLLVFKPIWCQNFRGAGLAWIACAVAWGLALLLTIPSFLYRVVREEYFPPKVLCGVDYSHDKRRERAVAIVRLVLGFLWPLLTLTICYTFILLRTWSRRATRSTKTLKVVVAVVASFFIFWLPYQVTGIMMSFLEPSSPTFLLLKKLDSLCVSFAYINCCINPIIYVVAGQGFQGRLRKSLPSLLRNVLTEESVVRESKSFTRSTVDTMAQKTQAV
# Chain of UniProt P21462 (P21462 whole entry): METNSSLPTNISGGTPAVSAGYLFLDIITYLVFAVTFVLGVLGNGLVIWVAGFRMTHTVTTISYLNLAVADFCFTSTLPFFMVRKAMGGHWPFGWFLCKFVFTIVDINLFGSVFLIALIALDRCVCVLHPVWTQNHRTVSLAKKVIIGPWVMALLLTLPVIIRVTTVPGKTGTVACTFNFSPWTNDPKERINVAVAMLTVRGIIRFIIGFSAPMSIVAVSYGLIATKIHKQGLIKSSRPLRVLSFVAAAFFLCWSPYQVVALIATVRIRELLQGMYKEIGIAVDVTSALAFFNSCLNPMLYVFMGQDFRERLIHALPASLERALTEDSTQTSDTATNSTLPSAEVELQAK
Substance,"neutrophil chemotaxis towards human fracture hematoma serum in a 3D fibrin gel, mean vector speed without vs with CHIPSΔ1F (10 μg/ml); value is the speed with CHIPSΔ1F [1] [μm/min]","neutrophil chemotaxis towards fMLF (10^-7 M) in a 3D fibrin gel, mean vector speed without vs with CHIPS (10 μg/ml); value is the speed with CHIPS [2] [μm/min]","neutrophil chemotaxis towards human fracture hematoma serum in a 3D fibrin gel, mean vector speed without vs with CHIPS (10 μg/ml); value is the speed with CHIPS [3] [μm/min]","neutrophil chemotaxis towards human fracture hematoma serum in a 3D fibrin gel, mean vector speed without vs with CHIPS (10 μg/ml); value is the speed with CHIPS [1] [μm/min]"
"CHIPSΔ1F, a CHIPS mutant lacking the first N-terminal amino acid (domain or fragment)",4,–,–,–
chemotaxis inhibitory protein of Staphylococcus aureus (CHIPS) (from UniProt A6QIG7 29-149) (natural protein),–,0.4,3.3,3.3
